Experiment: soluble fraction after stress (log2 fold change); higher = more stays soluble; pooled small domains, quantitative proteomics
Details: stress: 75 degC
For “HMYEINEIIRERRLKKGLTQAQVAKYLGVSAPAVNKWEKGTTYPDLVLLPALARLLDTDLTTLLSF”, the “soluble fraction (log2)” value was -1.46. With “HMYEVVPNMRGLTYNQATAALAAAGLKVELSDSIYDEHTQPGTVLDQSPRPNTKVKPNRVVYLTVNAF” the “soluble fraction (log2)” value was -1.1. With “HMYFDDEELDTYKGRASNAYSPDETAQFEEVMTTMRPDEVAAWLRSLQLRGINLPDELKDEAIMLVE” the “soluble fraction (log2)” value was -0.0968. In the case of “HMYFGNSLFQARKRSGLSQEGVAEKLGVSRQTVSKWETGETVPDIYQSKKMARLYGVSLDEL”, the “soluble fraction (log2)” value is reported as 0.206. In the case of “HMYFNTADLKADSIHYGSTEQSVIKILGEPEYRETFVDNNVSYELFSYKGNLLLSFVENSLVSL”, the “soluble fraction (log2)” value is reported as 0.147. In the case of “HMYGTERILAQLANYGIPNKLAFQIQDFYKEETLQIVEQQPYRLVEDIQGMGFKIADQLAEELGI”, the “soluble fraction (log2)” value is reported as -0.307. In the case of “HMYIDLHEIWKSLTDEEQTVVKLLETEPAHVDTLIENSQIPASRILATLTLLEVRGIVKRLPGRMFSLAD”, the “soluble fraction (log2)” value is reported as -3.61. With “HMYIENIGDYLKSHDIKPSYQRIKVFEYLMQHKNHPTVDMIYKSLVDEIPTLSKTTVYNTLNLFIEKQI” the “soluble fraction (log2)” value was -1.55. In the case of “HMYITGAVIRKLREKNNITQLQLAERLRVSDKTISKWETGKGYPDITLLEPIAKTFSVSVTELISGDI”, the “soluble fraction (log2)” value is reported as -2.46. For “HMYKNLRAFRESLGMTQKDFAASLSIGLSTYNGYEVGAREPKSDFWIAVARKYGVTIDYLMGFSDDPHK”, the “soluble fraction (log2)” value was -1.46. For “HMYKSSRASKSEVNKFLKFIIQSLDKRGFLQPGHKRQSMIRNIENIFYRTNLSDQEIRILLGIFSTLNK”, the “soluble fraction (log2)” value was -0.9. For “HMYLELVTKEGGSFDEPDYWGRRKLAYEIAGKTEGNYVVVKYTAEPATSDELDRVLNLNESVIRTKILRK”, the “soluble fraction (log2)” value was 0.00439. With “HMYLHSEFSPVTGQELHMKYDDSSTEEDPVMLVEGKDIQGNDFVKKIHLNDVDPENATPAEMTALRVHL” the “soluble fraction (log2)” value was 0.206. With “HMYLLPVTSTELKGNYPNPFNPETTISFDLKDAERVNLSIYNLKGQLVRTLVNSDLPIGRHRLIWDGNDS” the “soluble fraction (log2)” value was -0.622. With “HMYLPGERMRIKITALGSNPKQGVGYLPDGMMVVVDEAATLVGRFVEIEFVKFLQTNSGRMMFAKVAT” the “soluble fraction (log2)” value was -1.96. With “HMYMKGKVKWFDSKKGYGFITSENGKEIFVHFSGIAAKGFKSLNEGQTVEFEVANGAKGEQAVNVTV” the “soluble fraction (log2)” value was -1.23. In the case of “HMYMKTITEQFGERLKKIRTQKSLSQEQLSYLADIDRSYISDVERGARNISLENIYKLASALNIPPYLVLL”, the “soluble fraction (log2)” value is reported as -0.341. With “HMYMLYQQLADSLRDKIYEGTYTFGDKIPSERTLAATFGISHLTVRKALAILEEEGLLDRRQGNGTFVRV” the “soluble fraction (log2)” value was -1.09. In the case of “HMYNIDSFMTKNYPTMERFTLSDVQKKYKTTFGLFVKQDELASMIEKTGRFNITSSKNVKYVNR”, the “soluble fraction (log2)” value is reported as -1.88. In the case of “HMYNPAYDAEIKVILELARHGYWEEARERADELLKAAPDDTGVKRIQTWVRQQEQRMREQAIEDSIRA”, the “soluble fraction (log2)” value is reported as -0.288. With “HMYPEETVNKILDVSMQLFLEKGYEHTSIQDIVNHLGGLSKGAIYHHFKSKEDILDGVMNKLYQNN” the “soluble fraction (log2)” value was -1.58. With “HMYPGQILEIYLDEIKRLYLNGLSSADIFAEIKEGSIPSVKKAIRSMKDGSAPVKITEAEESTRIAPS” the “soluble fraction (log2)” value was -0.543. In the case of “HMYPTPAAANRHFLDKWGHQEAYLGKVLNSRSRASEILNGKRPLSLSDLRTLRDNLGIPVDLLL”, the “soluble fraction (log2)” value is reported as -0.648. With “HMYQKERDKEISEIETFLKKITNANGTRAYSDESIADMSYVELLNLYEGITSKLTEEEIENI” the “soluble fraction (log2)” value was 0.0659. For “HMYQPLYEQIKRMLTQSLIDGEWKAGEMIPSEMELAARFKVSQGTVRKAIDELVSENILMRRQGKGTFVH”, the “soluble fraction (log2)” value was -0.962. For “HMYSDDNKSILNLIDNLFNKENIKIDINAKKLLSNYLGVDRLVTKGEIEKAILFAGTKKHLSIEDISAFLS”, the “soluble fraction (log2)” value was -0.104. With “HMYSFPHQLLKLRTEKQLSQAELATRLFVSRQAVSKWENGDAEPSIDKLILLAKVFNVSLDRLILGT” the “soluble fraction (log2)” value was -4.31. With “HMYSIDNPPDWLKNLPKGAIRIGVEVFNQVLSKADDEDRARMAAWSAIKAKYEKADDGQWQPKAA” the “soluble fraction (log2)” value was 0.0816. With “HMYSNDEIVNYLKNYIFDNFNLNELSDEELEEKIAELVQQQFAGQLLSLDEKVKLVNQVYSSIR” the “soluble fraction (log2)” value was -0.0578. In the case of “HMYSRQRDLILKALRENVVHPTADFIYTVLKEKEPNLSLATVYRNLNLLANEGIIRKIEGLDGVAHFDH”, the “soluble fraction (log2)” value is reported as -1.85. In the case of “HMYSVVGKKGIVIEDINYSTGTGQIKSEGEVWSAKTNEQINIPKGTEIEIESIDGVKVIVKPL”, the “soluble fraction (log2)” value is reported as 0.109. In the case of “HMYTDGVPALTDLKKESKPGRRQYVGVEDIPKVLGGLGITILSTSKGLMSGHQAKKKNIGGELIASV”, the “soluble fraction (log2)” value is reported as 0.102. In the case of “HMYTEIDDVKDLLSKIPSVNKLTTADRGMVQAARNAYDALDEDQKLYITIADVEKFNAAVEWMEEH”, the “soluble fraction (log2)” value is reported as -0.186. With “HMYTVRDGDTVFGILNRFGVSLDELLSLNPELSNGLKAGMVLKIK” the “soluble fraction (log2)” value was -0.542. In the case of “HMYVADVVGMGIKDALYILENQGLRVVFTGKGVVKNQSIAVGEKIIKGEKIVLML”, the “soluble fraction (log2)” value is reported as -1.88. With “HMYVQDPVDRLVLESALRLLREQEREIIFLHLVAGLKHREIAGLLHLPLSTVLSGYRRALTKMKSYLEE” the “soluble fraction (log2)” value was -0.0135. In the case of “HMYVTGETIRHLRTQRRMTQEQLAETLGVTGKAVSKWETGRGFPDMSLLEPLARALRISVPELLSGE”, the “soluble fraction (log2)” value is reported as -1.07. With “HMYYNQGILKSGASVYGEPGITSSHRLEIPSGSFVDIVQEKDEWVYYEKNHVNHGWVLRENIYIPSL” the “soluble fraction (log2)” value was 0.149. With “HMYYQEDHDIILEETEDVTDPYLITLRGYIFLNNLQWVAARQAFLSADERFRHRHYSALIAPIMQTIDNAA” the “soluble fraction (log2)” value was 0.359.

Source: the domain aggregation screens of Martell et al. (2025)
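Note: 20 min heating vs room temperature control held 20 min.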
